Source: article PMC4622529
Several values for one entry are separate records, joined by “and”; a condition that tells them apart may be missing. Equal entries are not always repeated. Where two headings read alike, the source gives them in different places.

Assays:
Experiment in all cases: SPR
[1] = target: rat FcRn (FcRn/β2m heterodimer, soluble extracellular domain) (rat) (UniProt P13599)
[2] = target: mouse FcRn (FcRn/β2m heterodimer, soluble extracellular domain) (mouse) (UniProt Q61559)
[3] = target: rat FcRn (FcRn/β2m heterodimer, soluble extracellular domain) (rat) (UniProt P13599); remark: listed apart in the source
[4] = target: mouse FcRn (FcRn/β2m heterodimer, soluble extracellular domain) (mouse) (UniProt Q61559); remark: listed apart in the source
[5] = target: trastuzumab hIgG1 N434Y (homodimer) (human)
[6] = target: trastuzumab hIgG1 wild type (homodimer) (human)
[7] = target: trastuzumab hIgG1 N434H (homodimer) (human)
[8] = target: trastuzumab hIgG1 N434Y (homodimer) (human); remark: listed apart in the source
[9] = target: mouse FcRn (FcRn/β2m heterodimer, soluble extracellular domain) (mouse) (UniProt Q61559); remark: listed apart in the source
[10] = target: mouse FcRn (FcRn/β2m heterodimer, soluble extracellular domain) (mouse) (UniProt Q61559); remark: listed apart in the source
human IgG3 (human) = target: human IgG3 (human)
human IgG4 (human) = target: human IgG4 (human)
[11] = target: rat FcRn (FcRn/β2m heterodimer, soluble extracellular domain) (rat) (UniProt P13599); remark: listed apart in the source
[12] = target: trastuzumab hIgG1 AAA:N434Y E:R heterodimer (human)
[13] = target: trastuzumab hIgG1 I253A:WT E:R heterodimer (human)
[14] = target: trastuzumab hIgG1 AAA:N434H E:R heterodimer (human)
[15] = target: trastuzumab hIgG1 AAA:WT E:R heterodimer (human)
mouse IgG2a (mouse) = target: mouse IgG2a (mouse)
[16] = target: trastuzumab hIgG1 WT E arm (parental) (human)
[17] = target: trastuzumab hIgG1 WT R arm (parental) (human)
[18] = target: trastuzumab hIgG1 N434Y R arm (parental) (human)
[19] = target: trastuzumab hIgG1 WT:WT E:R heterodimer (human)
[20] = target: cynomolgus monkey IgG2 (cynomolgus monkey)
[21] = target: human IgG2 (category of several hIgG2 molecules) (human)
[22] = target: human IgG1 (category of several hIgG1 molecules) (human)
[23] = target: rat IgG2a (panel of unrelated mAbs of subtype rIgG2a) (rat)
[24] = target: rhesus monkey IgG2 (rhesus monkey)
mouse IgG2b (mouse) = target: mouse IgG2b (mouse)
rat IgG1 (rat) = target: rat IgG1 (rat)
mouse IgG3 (mouse) = target: mouse IgG3 (mouse)
mouse IgG1 (mouse) = target: mouse IgG1 (mouse)
[25] = target: rhesus monkey IgG1 (rhesus monkey)
rat IgG2b (rat) = target: rat IgG2b (rat)
rat IgG2c (rat) = target: rat IgG2c (rat)
[26] = target: cynomolgus monkey IgG1 (cynomolgus monkey)
[27] = target: rat IgG2a (panel of unrelated mAbs of subtype rIgG2a) (rat); remark: listed apart in the source

trastuzumab hIgG1 AAA:N434H E:R heterodimer (antibody)
Kd [1]: 8 nM | Kd [2]: 3.6 nM | Kd [3]: 4.9 nM | Kd [4]: 3.8 nM

rat FcRn (FcRn/β2m heterodimer, soluble extracellular domain) (from UniProt P13599;P07151) (receptor)
Kd [5]: 4.5 nM | Kd [6]: 84 nM | Kd [7]: 9.9 nM | Kd [8]: 455 nM

trastuzumab hIgG1 AAA:N434Y E:R heterodimer (antibody)
Kd [9]: 66 nM | Kd [1]: 3.5 nM | Kd [2]: 0.35 nM | Kd [10]: 50 nM and 52 nM | Kd [3]: 2.7 nM | Kd [4]: 0.28 nM

trastuzumab hIgG1 N434H (homodimer) (antibody)
Kd [3]: 5.4 nM | Kd [4]: 3.7 nM

trastuzumab hIgG1 wild type (homodimer) (antibody)
Kd [3]: 49 nM | Kd [4]: 48 nM

human FcRn (FcRn/β2m heterodimer, soluble extracellular domain) (from UniProt P55899;P61769) (receptor)
Kd (human IgG3 (human)): 585 nM and 898 nM | Kd (human IgG4 (human)): 717 nM and 973 nM

trastuzumab hIgG1 N434Y (homodimer) (antibody)
Kd [11]: 460 nM | Kd [10]: 36 nM | Kd [3]: 3.3 nM | Kd [4]: 0.292 nM

trastuzumab hIgG1 AAA:WT E:R heterodimer (antibody)
Kd [1]: 67 nM | Kd [2]: 49 nM | Kd [3]: 46 nM | Kd [4]: 54 nM

cynomolgus monkey FcRn (FcRn/β2m heterodimer, soluble extracellular domain) (from UniProt Q8SPV9;Q8SPW0) (receptor)
Kd (human IgG3 (human)): 188 nM and 213 nM and 387 nM | Kd (human IgG4 (human)): 258 nM and 266 nM and 450 nM

mouse FcRn (FcRn/β2m heterodimer, soluble extracellular domain) (from UniProt Q61559;P01887) (receptor)
Kd [12]: 0.47 nM | stoichiometry N [12]: 1 FcRn per IgG | Kd [13]: 58 nM | Kd [5]: 0.47 nM | stoichiometry N [5]: 2 FcRn per IgG | Kd (human IgG3 (human)): 230 nM and 353 nM and 328 nM | Kd (human IgG4 (human)): 116 nM and 197 nM and 183 nM | stoichiometry N [14]: 1 FcRn per IgG | Kd [15]: 58 nM | stoichiometry N [15]: 1 FcRn per IgG | Kd (mouse IgG2a (mouse)): 490 nM and 931 nM | Kd [16]: 58 nM | Kd [17]: 58 nM | Kd [18]: 0.47 nM | Kd [6]: 58 nM | stoichiometry N [6]: 2 FcRn per IgG | Kd [19]: 58 nM | stoichiometry N [7]: 2 FcRn per IgG | Kd [8]: 44.1 nM

B1: rat FcRn (FcRn/β2m heterodimer, soluble extracellular domain) (receptor)
chain 1: AEPRLPLMYHLAAVSDLSTGLPSFWATGWLGAQQYLTYNNLRQEADPCGAWIWENQVSWYWEKETTDLKSKEQLFLEAIRTLENQINGTFTLQGLLGCELAPDNSSLPTAVFALNGEEFMRFNPRTGNWSGEWPETDIVGNLWMKQPEAARKESEFLLTSCPERLLGHLERGRQNLEWKEPPSMRLKARPGNSGSSVLTCAAFSFYPPELKFRFLRNGLASGSGNCSTGPNGDGSFHAWSLLEVKRGDEHHYQCQVEHEGLAQPLTVDL
chain 2: IQKTPQIQVYSRHPPENGKPNFLNCYVSQFHPPQIEIELLKNGKKIPNIEMSDLSFSKDWSFYILAHTEFTPTETDVYACRVKHVTLKEPKTVTWDRDM
Kd [20]: 38 nM and 51 nM | Kd [21]: 53 nM and 93 nM | Kd [22]: 68 nM and 135 nM | Kd [23]: 45 nM and 76 nM | Kd (human IgG3 (human)): 313 nM and 357 nM and 366 nM | Kd (human IgG4 (human)): 123 nM and 149 nM and 145 nM | Kd [24]: 41 nM and 51 nM | Kd (mouse IgG2b (mouse)): 332 nM and 368 nM | Kd (rat IgG1 (rat)): 285 nM and 329 nM | Kd (mouse IgG2a (mouse)): 97 nM and 150 nM | Kd (mouse IgG3 (mouse)): 183 nM | Kd (mouse IgG1 (mouse)): 501 nM and 567 nM | Kd [25]: 88 nM and 119 nM | Kd (rat IgG2b (rat)): 186 nM and 248 nM | Kd (rat IgG2c (rat)): 452 nM and 617 nM | Kd [26]: 88 nM and 123 nM | Kd [27]: 44 nM and 69 nM and 55 nM | koff [27]: 0.0119 s⁻¹ | kon [27]: 220000 M⁻¹ s⁻¹
